Target: T1, recombinant human MAT II β subunit protein with N-terminal poly-His tag, expressed in E. coli from pQE-30 (Clone 5)
T1 chain: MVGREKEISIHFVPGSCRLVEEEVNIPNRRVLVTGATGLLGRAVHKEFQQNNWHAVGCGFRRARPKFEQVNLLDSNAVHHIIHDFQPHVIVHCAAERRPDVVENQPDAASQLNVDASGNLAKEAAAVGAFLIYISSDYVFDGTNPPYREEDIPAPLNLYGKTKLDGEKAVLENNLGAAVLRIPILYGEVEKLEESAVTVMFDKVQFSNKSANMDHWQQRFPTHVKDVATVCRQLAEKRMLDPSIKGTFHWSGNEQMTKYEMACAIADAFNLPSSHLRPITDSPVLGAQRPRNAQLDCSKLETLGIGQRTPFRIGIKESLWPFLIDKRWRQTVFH

B1: endogenous E. coli MAT α subunit (protein)
chain: AKHLFTSESVSEGHPDKIADQISDAVLDAILEQDPKARVACETYVKTGMVLVGGEITTSAWVDIEEITRNTVREIGYVHSDMGFDANSCAVLSAIGKQSPDINQGVDRADPLEQGAGDQGLMFGYATNETDVLMPAPITYAHRLVQRQAEVRKNGTLPWLRPDAKSQVTFQYDDGKIVGIDAVVLSTQHSEEIDQKSLQEAVMEEIIKPILPAEWLTSATKFFINPTGRFVIGGPMGDCGLTGRKIIVDTYGGMARHGGGAFSGKDPSKVDRSAAYAARYVAKNIVAAGLADRCEIQVSYAIGVAEPTSIMVETFGTEKVPSEQLTLLVREFFDLRPYGLIQMLDLLHPIYKETAAYGHFGREHFPWEKTDKAQLLRDAAGLK
With B1 the “Km of MAT for L-methionine” value was “This association changed the kinetic properties of the enzyme and lowered the Km of MAT for L-methionine”.

From patent publication US20040259198
